Molecular target: T1, trans-2-butenoyl-ACP (acyl carrier protein carrying the trans-2-butenoyl group), P0A6A8
T1 chain: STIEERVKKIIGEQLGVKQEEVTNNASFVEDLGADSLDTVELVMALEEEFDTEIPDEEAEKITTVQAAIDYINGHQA

B1: His-tagged FabK (enoyl-ACP reductase II) of Streptococcus pneumoniae (protein)
chain: MKTRITELLKIDYPIFQGGMAWVADGDLAGAVSKAGGLGIIGGGNAPKEVVKANIDKIKSLTDKPFGVNIMLLSPFVEDIVDLVIEEGVKVVTTGAGNPSKYMERFHEAGIIVIPVVPSVALAKRMEKIGADAVIAEGMEAGGHIGKLTTMTLVRQVATAISIPVIAAGGIADGEGAAAGFMLGAEAVQVGTRFVVAKESNAHPNYKEKILKARDIDTTISAQHFGHAVRAIKNQLTRDFELAEKDAFKQEDPDLEIFEQMGAGALAKAVVHGDVDGGSVMAGQIAGLVSKEETAEEILKDLYYGAAKKIQEEASRWTGVVRND
specific activity (enoyl-ACP reductase activity, coupled in vitro assay, butyryl-ACP formation by gel electrophoresis): 66±4 nmole product formed/min/mg FabK

Source: patent US20050196758
